Measurements: patent US20180291101A1 (published 2018)

How the values were obtained:
[1] = target: monomeric His-tagged human FcRn (hFcRn) (JTA) (human) (UniProt P55899); assay: SPR, IgG amine-coupled, hFcRn (JTA) injected, 1:1 fit, pH 6.0
[2] = target: monomeric His-tagged human FcRn (hFcRn) (JTA) (human) (UniProt P55899); assay: SPR, IgG amine-coupled, hFcRn (JTA) injected, pH 6.0; second value of the cell (steady-state affinity model)
[3] = target: monomeric His-tagged human FcRn (hFcRn) (JTA) (human) (UniProt P55899); assay: SPR, IgG amine-coupled, hFcRn (JTA) injected, pH 6.0; first value of the cell (kinetic fit)
[4] = target: hFcRn in hFcRn TG mice (human FCGRT transgene) (human, UniProt P55899 24-365); assay: cell-based or functional assay
Sequence of hFcRn in hFcRn TG mice (human FCGRT transgene) (P55899 24-365): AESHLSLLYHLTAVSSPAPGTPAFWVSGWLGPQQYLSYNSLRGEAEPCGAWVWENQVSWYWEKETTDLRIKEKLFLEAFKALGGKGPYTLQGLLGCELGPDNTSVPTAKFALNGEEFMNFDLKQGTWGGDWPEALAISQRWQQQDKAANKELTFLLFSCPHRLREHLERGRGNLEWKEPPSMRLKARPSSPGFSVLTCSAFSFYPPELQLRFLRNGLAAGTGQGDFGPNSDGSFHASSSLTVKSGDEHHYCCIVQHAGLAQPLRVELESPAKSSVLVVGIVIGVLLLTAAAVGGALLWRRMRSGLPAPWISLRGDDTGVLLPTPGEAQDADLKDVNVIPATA

[5] = target: T1, recombinant human FcRn (Sino Biological Inc. Cat. No. CT009-H08H) (human, UniProt P55899 24-297; P61769 21-119); assay: competition ELISA vs biotinylated human serum IgG, pH 6.0
T1 construct: Bought protein; also called hFcRn (SINO); immobilized FcRn
T1 sequence (P55899 24-297 limits assumed, chain 1 of 2): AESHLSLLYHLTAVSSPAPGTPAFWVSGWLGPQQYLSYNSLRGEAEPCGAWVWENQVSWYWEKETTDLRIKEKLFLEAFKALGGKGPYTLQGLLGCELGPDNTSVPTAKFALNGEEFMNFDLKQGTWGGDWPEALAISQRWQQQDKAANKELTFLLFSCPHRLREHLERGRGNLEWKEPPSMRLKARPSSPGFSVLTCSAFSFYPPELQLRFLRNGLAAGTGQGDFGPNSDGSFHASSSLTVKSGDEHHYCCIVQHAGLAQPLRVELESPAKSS
T1 sequence (P61769 21-119 limits assumed, chain 2 of 2): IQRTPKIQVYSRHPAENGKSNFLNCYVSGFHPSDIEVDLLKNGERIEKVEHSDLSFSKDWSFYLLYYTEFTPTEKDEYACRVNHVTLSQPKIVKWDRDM

[6] = target: T1, recombinant human FcRn (Sino Biological …); assay: competition ELISA vs biotinylated parent murine antibody, pH 7.4
[7] = target: T1, recombinant human FcRn (Sino Biological …); assay: competition ELISA vs biotinylated parent murine antibody, pH 6.0

Sequence of monomeric His-tagged human FcRn (hFcRn) (JTA) (human) (P55899 24-297 limits assumed, chain 1 of 2): as the sequence (P55899 24-297 limits assumed, chain 1 of 2) above
Sequence of monomeric His-tagged human FcRn (hFcRn) (JTA) (human) (P61769 21-119 limits assumed, chain 2 of 2, further chain): as the sequence (P61769 21-119 limits assumed, chain 2 of 2) above

With human IgG1 (hIgG1) (antibody) as the molecule, how does the koff [1] read?
The koff was 0.0824 s⁻¹.

And the kon [1]?
Its kon is 108000 M⁻¹ s⁻¹.

And the Kd [2]?
Its Kd is 1250 nM.

What about the Kd [3] of the same molecule?
Its Kd is 763 nM.

With human IgG4 (hIgG4) (antibody) as the molecule, how does the Kd [2] read?
Its Kd is 970 nM.

What about the Kd [3] of the same molecule?
The Kd was 1010 nM.

B1: H3Vκ2 (H3VH1_Vκ2) IgG4 (antibody, V domains shown)
VH: QVQLVQSGAELKKPGASVKLSCKASGYTFTSYGISWVKQATGQGLEWIGEIYPRSGNTYYNEKFKGRATLTADKSTSTAYMELRSLRSEDSAVYFCARSTTVRPPGIWGTGTTVTVSS
VL: DIQMTQSPSSLSASVGDRVTITCKASDHINNWLAWYQQKPGQAPRLLISGATSLETGVPSRFSGSGTGKDYTLTISSLQPEDFATYYCQQYWSTPYTFGGGTKVEIK
How did the “plasma concentration of HuLys11 (human IgG1) in hFcRn TG mice after 20 mg/kg” value [4] turn out when B1 was run?
Its value is 3 fold reduction.

B2: VH1_A8/Vκ1 IgG4 (antibody, V domains shown)
VH: QVQLVQSGAELKKPGASVKLSCKASGYTFTSYGISWVKQATGQGLEWIGEIYPRSGNTYYNEKFKGRATLTADKSTSTAYMELRSLKSEDSAVYFCARSTTVSPPAHWGTGTTVTVSS
VL: DIQMTQSPSYLSASVGDRVTITCKASDHINNWLAWYQQKPGQAPRLLISGATSLETGVPSRFSGSGTGKDYTLTISSLQTEDFATYYCQQYWSTPYTFGGGTKVEIK
notes: IgG4
B2 was tested. Which “average relative IC50 (normalized to parent murine antibody)” value [5] did it give?
The value was 0.53 ratio.

What about the “average relative IC50 (normalized to chimeric parent murine antibody)” value [6] of the same molecule?
The value was 0.89 ratio.

What about the “average relative IC50 (normalized to chimeric parent murine antibody)” value [7] of the same molecule?
Its value is 0.87 ratio.
